The record followed here is paper PMC10821904 (2024).

Assay [1] addresses LayV-G extracellular domain (Langya henipavirus attachment glycoprotein G, residues 63-624) (Langya henipavirus (LayV)). Description: SEC + other: non-reducing and reducing SDS-PAGE.
For assay [2], the target named is Full-length LayV-G (Langya henipavirus attachment glycoprotein G) (Langya henipavirus (LayV)). Description: cryo-EM structure.
Assay [3] has as its target T1, human ephrinB3 extracellular domain (amino acids 1-224) (human, UniProt Q15768 28-224).
T1 chain: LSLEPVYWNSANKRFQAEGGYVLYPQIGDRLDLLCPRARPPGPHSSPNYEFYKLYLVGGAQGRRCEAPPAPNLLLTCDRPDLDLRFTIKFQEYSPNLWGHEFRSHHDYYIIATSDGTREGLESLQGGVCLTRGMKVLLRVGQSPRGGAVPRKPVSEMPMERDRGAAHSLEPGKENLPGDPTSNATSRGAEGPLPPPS
Description: BLI.

In assay [4] the target is T2, human ephrinB2 extracellular domain (amino acids 1-227) (human, UniProt P52799 28-227).
T2 chain: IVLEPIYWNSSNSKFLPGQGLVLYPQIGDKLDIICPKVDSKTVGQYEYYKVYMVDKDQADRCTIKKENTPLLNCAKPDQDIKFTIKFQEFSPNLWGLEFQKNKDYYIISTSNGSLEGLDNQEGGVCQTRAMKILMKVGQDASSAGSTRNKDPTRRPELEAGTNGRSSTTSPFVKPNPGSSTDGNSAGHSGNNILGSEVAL
The assay is described as follows: BLI. (In BLI a coated tip is dipped into the sample, and binding shifts an interference pattern.)

The stoichiometry N is the number of molecules, sites or subunits per partner or assembly. For “LayV-G extracellular domain (Langya henipavirus attachment glycoprotein G, residues 63-624) (domain or fragment)”, the stoichiometry N in assay [1] was 4.

As for “Full-length LayV-G (Langya henipavirus attachment glycoprotein G) (natural protein)”, the stoichiometry N in assay [2] is 4.

B1: NiV-G ectodomain (Nipah virus attachment glycoprotein G) (domain or fragment)
chain: QNYTRSTDNQAVIKDALQGIQQQIKGLADKIGTEIGPKVSLIDTSSTITIPANIGLLGSKISQSTASINENVNEKCKFTLPPLKIHECNISCPNPLPFREYRPQTEGVSNLVGLPNNICLQKTSNQILKPKLISYTLPVVGQSGTCITDPLLAMDEGYFAYSHLERIGSCSRGVSKQRIIGVGEVLDRGDEVPSLFMTNVWTPPNPNTVYHCSAVYNNEFYYVLCAVSTVGDPILNSTYWSGSLMMTRLAVKPKSNGGGYNQHQLALRSIEKGRYDKVMPYGPSGIKQGDTLYFPAVGFLVRTEFKYNDSNCPITKCQYSKPENCRLSMGIRPNSHYILRSGLLKYNLSDGENPKVVFIEISDQRLSIGSPSKIYDSLGQPVFYQASFSWDTMIKFGDVLTVNPLVVNWRNNTVISRPGQSQCPRFNTCPEICWEGVYNDAFLIDRINWISAGVFLDSNQTAENPVFTVFKDNEILYRAQLASEDTNAQKTITNCFLLKNKIWCISLVEIYDTGDNVIRPKLFAVKIPEQCT
The term Kd denotes the concentration at which binding is half-saturated. Low values mean higher affinity, high ones lower affinity. Regarding B1, the results for the Kd in assay [3] and in assay [4] were 9.3 nM and 0.19 nM, respectively.
